According to patent CN116724049A (UNIV KOELN; PHILIPPS UNIV T MARBURG, dated 2023):

B1: MnC4t2p2_A4 (antibody, V domains shown)
VH: QVQLVQSGSELKKPGASVKISCKASGYIFINYAMNWVRQAPGQGLEWMGWINTNTGNPTYAQDFTGRFVFSLDTSLSTAYLQISSLEAEDTAVYYCAKIGSRNSLGVWGQGTLVTVSA
VL: EIVLTQSPGTLSLSPGERATLSCRASHSVDRSYLAWYQQKPGLAPRLLIYGASSRATGIPDRFSGSGSGTDFTLTISRLEPEDFALYYCQHFGTSSVTFGRGTRLEIK
B2: FnC1t2p1_D4 (antibody, V domains shown)
VH: QVQLVQSGSELKKPGASVKVSCKASGYTFLRFAMNWLRQAPGQGLEWMGWIDTNTGTPTYAQGFTGRFVFSLDTSVSTAYLQISSLKAEDTAVYYCARSLRGANLVPWGQGTLVTVSS
VL: DIQMTQSPSSLSASVGDRVTITCQASQDVSNYLNWYQQQPGKAPKLLIYDAFNLETGVPSRFSGSGSGTDFTFTISSLQPEDIATYYCQQYDNLPLTFGGGTKVEIK
B3: FnC1t2p1_G5 (antibody, V domains shown)
VH: B2 VH
VL: B2 VL
B4: MnC2t1p1_A3 (antibody, V domains shown)
VH: EVQLVESGGGLVQPGGSLRLSCAASGFTVSSNYMSWVRQAPGRGLEWVSVIYSGGSTFYADSVKGRFTISRDNSKNTLYLQMNSLRPEDTAVYYCATGARFGESPFDYWGQGTLVTVSS
VL: DIQMTQSPSSVSASVGDRVTITCRASQGISSWLAWYQQKPGKAPKLLIYAASSLQSGVPSRFSGSGSGTDFTLTISSLQPEDFATYYCQQANSFPGTFGQGTKVEIK
B5: MnC2t2p1_C11 (antibody, V domains shown)
VH: QVQLVQSGAEVKKPGSSVKVSCKASGGTFSRYTIIWVRQAPGQGLEWMGRIIPILDIANYAQKFQGRVTITADKSTSTAYMELSSLRSEDTAVYYCAREGGLDYFGSRNSGWTYTWFDPWGQGTLVTVSS
VL: DIQMTQSPSSLSASVGDRVTITCRASQNISSYLNWYQQKPGKAPNLLIYAASSLQSGVPPRFSGSGSGTDFTLTISSLQPEDFATYYCQQSYSTLYSFGQGTKLEIK
B6: MnC4t2p1_B3 (antibody, V domains shown)
VH: EVQLVESGGHLVQPGRSLRLSCAASGFTFDDYAMHWVRQVPGKGLEWVSGISWNGGILDYADSVKGRFTISRDNAKNSLYLHMRSLRTDDTALYYCAKDLRRQDYYADWYFDLWGRGTLVTVSS
VL: DIQMIQSPSSVSASVGDRVTITCRASQGISSWLAWYQQKPGKAPKLLIYAASTLLSAVPSRFSGSGSGTDFTLTISSLQPEDFATYYCQQGNSFPFTFGPGTIVDV

What follows are binders tested against SARS-CoV-2的刺突(S)蛋白的受体结合结构域(RBD) (SARS-CoV-2, UniProt P0DTC2 319-541).

Q: For B1, which Kd is on record?
A: 14 nM

Q: Which Kd does the source give for B2 here?
A: 0.2 nM

Q: How did the Kd turn out when B3 was run?
A: 0.1 nM

Q: B4 was tested. Which Kd did it give?
A: 0.7 nM

Q: How did the Kd turn out when B5 was run?
A: 0.02 nM

Q: How did the Kd turn out when B6 was run?
A: 0.09 nM
